Measured values published in patent US20190282704A1.

Key:
[1] = molecular target: wildtype feline IL-31 (Feline_IL31_wildtype) (feline); experiment: cell-based or functional assay
[2] = molecular target: canine IL-31 (Canine_IL31) (canine); experiment: cell-based or functional assay
[3] = molecular target: wildtype feline IL-31 (Feline_IL31_wildtype) (feline)
[4] = molecular target: canine IL-31 (Canine_IL31) (canine); experiment: SPR (Biacore), immobilised IL-31, 1:1 fit
[5] = molecular target: canine IL-31 (Canine_IL31) (canine)
[6] = molecular target: wildtype feline IL-31 (Feline_IL31_wildtype) (feline); experiment: SPR (Biacore), immobilised IL-31, 1:1 fit
[7] = molecular target: wildtype feline IL-31 (Feline_IL31_wildtype) (feline); experiment: indirect ELISA, coated IL-31; also: test concentration or dose not given here
[8] = molecular target: feline IL-31 15H05 mutant (Feline_IL31_15H05 mutant) (feline); experiment: indirect ELISA, coated IL-31; also: test concentration or dose not given here
feline IL-31 15H05 mutant (Feline_IL31_15H05 mutant) (feline), sequence (chain, as listed by the source mutant limits assumed, form in doubt): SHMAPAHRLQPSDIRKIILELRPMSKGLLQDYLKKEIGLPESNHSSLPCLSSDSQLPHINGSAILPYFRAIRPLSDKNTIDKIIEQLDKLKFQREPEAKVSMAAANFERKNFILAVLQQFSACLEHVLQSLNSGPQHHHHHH

canine IL-31 (Canine_IL31) (canine), sequence (chain, as listed by the source limits assumed, form in doubt): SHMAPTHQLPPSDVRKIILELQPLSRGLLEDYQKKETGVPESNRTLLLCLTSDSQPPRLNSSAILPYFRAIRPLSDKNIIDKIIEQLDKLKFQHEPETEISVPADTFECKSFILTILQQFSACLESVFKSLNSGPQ
wildtype feline IL-31 (Feline_IL31_wildtype) (feline), sequence (chain, as listed by the source limits assumed, form in doubt): as the sequence (chain, as listed by the source mutant limits assumed, form in doubt) above, with A103P, A105D counted along it

B1: mouse: feline 15H05 chimera (antibody)
heavy: QVQLQQSAAELARPGASVKMSCKTSGYTFTSYTIHWIKQRPGQGLEWIGNINPTSGYTENNQRFKDKTTLTVDRSSNTAYLQLHSLTSEDSAVYFCARWGFKYDGEWSFDVWGAGTTVTVSSASTTAPSVFPLAPSCGTTSGATVALACLVLGYFPEPVTVSWNSGALTSGVHTFPAVLQASGLYSLSSMVTVPSSRWLSDTFTCNVAHPPSNTKVDKTVRKTDHPPGPKPCDCPKCPPPEAAGAPSIFIFPPKPKDTLSISRTPEVTCLVVDLGPDDSDVQITWFVDNTQVYTAKTSPREEQFNSTYRVVSVLPILHQDWLKGKEFKCKVNSKSLPSPIERTISKAKGQPHEPQVYVLPPAQEELSRNKVSVTCLIKSFHPPDIAVEWEITGQPEPENNYRTTPPQLDSDGTYFVYSKLSVDRSHWQRGNTYTCSVSHEALHSHHTQKSLTQSPGK
light: DIQMNQSPSSLSASLGDTITVTCRASQGISIWLSWYQQKPGNIPKVLINKASNLHIGVPPRFSGSGSGTHFTLTITSLQPEDIATYYCLQSQTYPLTFGGGTKLEINRSDAQPSVFLFQPSLDELHTGSASIVCILNDFYPKEVNVKWKVDGVVQNKGIQESTTEQNSKDSTYSLSSTLTMSSTEYQSHEKFSCEVTHKSLASTLVKSFQRSECQRE
B1 gave an IC50 against feline IL-31 induced pSTAT3 signaling in feline FCWF4 cells, against mouse: feline 11E12 chimera [1] of 2 fold, an IC50 against canine IL-31 (pSTAT3; cell type not clear) [2] of 28.6 µg/ml and an IC50, inhibition of feline IL-31-induced STAT3 phosphorylation, canine DH82 cells [3] of 5.59 µg/mL. It also gave an IC50, inhibition of feline IL-31-induced STAT3 phosphorylation, feline FCWF4 cells [3] of 3.25 µg/mL, a Kd [4] of 0.0129 nM and a koff [4] of 1.62e-07 s⁻¹. It also gave a kon [4] of 12600 M⁻¹ s⁻¹.

B2: 15H05 mouse: canine chimera (antibody)
heavy: QVQLQQSAAELARPGASVKMSCKTSGYTFTSYTIHWIKQRPGQGLEWIGNINPTSGYTENNQRFKDKTTLTVDRSSNTAYLQLHSLTSEDSAVYFCARWGFKYDGEWSFDVWGAGTTVTVSSASTTAPSVFPLAPSCGSTSGSTVALACLVSGYFPEPVTVSWNSGSLTSGVHTFPSVLQSSGLYSLSSMVTVPSSRWPSETFTCNVAHPASKTKVDKPVPKRENGRVPRPPDCPKCPAPEMLGGPSVFIFPPKPKDTLLIARTPEVTCVVVDLDPEDPEVQISWFVDGKQMQTAKTQPREEQFNGTYRVVSVLPIGHQDWLKGKQFTCKVNNKALPSPIERTISKARGQAHQPSVYVLPPSREELSKNTVSLTCLIKDFFPPDIDVEWQSNGQQEPESKYRTTPPQLDEDGSYFLYSKLSVDKSRWQRGDTFICAVMHEALHNHYTQESLSHSPGK
light: DIQMNQSPSSLSASLGDTITVTCRASQGISIWLSWYQQKPGNIPKVLINKASNLHIGVPPRFSGSGSGTHFTLTITSLQPEDIATYYCLQSQTYPLTFGGGTKLEINRNDAQPAVYLFQPSPDQLHTGSASVVCLLNSFYPKDINVKWKVDGVIQDTGIQESVTEQDKDSTYSLSSTLTMSSTEYLSHELYSCEITHKSLPSTLIKSFQRSEC
B2 showed an IC50, feline IL-31 signaling on the canine DH82 cell line (pSTAT3) [1] of 0.71 µg/ml, an IC50 against canine IL-31 (pSTAT3; cell type not clear) [2] of 12.5 µg/ml and an IC50, inhibition of feline IL-31-induced STAT3 phosphorylation, feline FCWF4 cells [3] of 3.11 µg/mL. It also gave an IC50, inhibition of canine IL-31-induced STAT3 phosphorylation, canine DH82 cells [5] of 12.7 µg/mL.

B3: Feline 11E12 1.1 (antibody, V domains shown)
VH: QVLLVQSGAEVKKPGASVKIFCKASGYSFTYYDINWLRQAPEQGLEWMGWIFPGDGGTKYNETFKGRLTLTADTSTNTVYMELSSLRSADTAMYYCARGGTSVIRDAMDYWGQGALVTVSS
VL: EIQMTQSPSSLSASPGDRVTITCRASESVDNYGISFMHWYQQKPGKVPKLLIYRASNLESGVPSRFSGSGSGTDFTLTISSLEPEDAATYYCQQSNKDPLTFGQGT
With B3 the potency against feline IL-31 in the feline FCWF assay, against the mouse version [1] was 2 fold, the Kd [6] was 22.2 nM and the koff [6] was 0.000444 s⁻¹. The kon [6] was 20000 M⁻¹ s⁻¹, the Kd [4] was 0.764 nM and the koff [4] was 0.000141 s⁻¹. It also gave a kon [4] of 185000 M⁻¹ s⁻¹.

B4: mouse anti IL-31 antibody 11E12 (antibody, V domains shown)
VH: QVQLQQSGAELVKPGASVKLSCKASGYTFKYYDINWVRQRPEQGLEWIGWIFPGDGGTKYNETFKGKATLTTDKSSSTAYMQLSRLTSEDSAVYFCARGGTSVIRDAMDYWGQGTSVTVSS
VL: DIVLTQSPASLAVSLGQRATISCRASESVDNYGISFMHWYQQKPGQPPKLLIYRASNLESGIPARFSGSGSRTDFTLTINPVETDDVATYYCQQSNKDPLTFGAGTKLELK
B4 gave a Binding (ELISA OD) [7] of 1.15 OD, a Binding (ELISA OD) [8] of 1.33 OD and an IC50, inhibition of feline IL-31-induced STAT3 phosphorylation, canine DH82 cells [3] of 2.47 µg/mL. For the same binder, the IC50, inhibition of feline IL-31-induced STAT3 phosphorylation, feline FCWF4 cells [3] was 2.01 µg/mL, the Kd [6] was 0.738 nM and the koff [6] was 0.000123 s⁻¹. For the same binder, the kon [6] was 167000 M⁻¹ s⁻¹, the Kd [4] was 0.000763 nM and the koff [4] was 4.8e-07 s⁻¹. For the same binder, the kon [4] was 629000 M⁻¹ s⁻¹.

B5: mouse anti IL-31 antibody 15H05 (antibody, V domains shown)
VH: QVQLQQSAAELARPGASVKMSCKTSGYTFTSYTIHWIKQRPGQGLEWIGNINPTSGYTENNQRFKDKTTLTVDRSSNTAYLQLHSLTSEDSAVYFCARWGFKYDGEWSFDVWGAGTTVTVSS
VL: DIQMNQSPSSLSASLGDTITVTCRASQGISIWLSWYQQKPGNIPKVLINKASNLHIGVPPRFSGSGSGTHFTLTITSLQPEDIATYYCLQSQTYPLTFGGGTKLEIN
B5 was tested, and the Binding (ELISA OD) [7] was 1.94 OD, the Binding (ELISA OD) [8] was 0.05 OD and the IC50, inhibition of feline IL-31-induced STAT3 phosphorylation, canine DH82 cells [3] was 2.7 µg/mL. For the same binder, the IC50, inhibition of feline IL-31-induced STAT3 phosphorylation, feline FCWF4 cells [3] was 4.26 µg/mL, the IC50, inhibition of canine IL-31-induced STAT3 phosphorylation, canine DH82 cells [5] was 11.2 µg/mL and the IC50, inhibition of canine IL-31-induced STAT3 phosphorylation, feline FCWF4 cells [5] was 25.7 µg/mL. It also gave a Kd [6] of 0.348 nM, a koff [6] of 1.69e-05 s⁻¹ and a kon [6] of 48400 M⁻¹ s⁻¹. It also gave a Kd [4] of 0.00487 nM, a koff [4] of 6.56e-07 s⁻¹ and a kon [4] of 135000 M⁻¹ s⁻¹.
